Test results published in US5690954A, “Enhanced uptake drug delivery system having microspheres containing an active drug and a bioavailability improving material” (priority 1987, dated 1997).

Assays:
[1] = rats, nasal polyacrylic acid gel, versus normal formulation; cited from earlier work
[2] = dogs, powder with cellulosic material and Carbopol 934; cited from earlier work
[3] = Comparative studies: nasal insulin with various materials with and without starch microspheres; assay type: in vivo; conditions: sheep; for decrease in plasma glucose and increase in absorption versus starch microspheres alone: nasal powder
Description: A series of studies were carried out to determine the effect on the administration of insulin of various enhancers with and without microsphere particles. All of the studies were carried out in sheep and the insulin was administered intranasally either in solution or powder formulation. The preparation of the various insulin formulations and the method of administration and result taking were all as described earlier.

[4] = without enhancer; cited from earlier work
[5] = Insulin nasal in sheep, plasma glucose and plasma insulin
[6] = nasal, sodium deoxycholate; cited from earlier work
[7] = intranasal with Laureth 9; cited from earlier work
[8] = Bioavailability enhancement by microspheres plus bioavailability increasing material (general statement); conditions: microspheres with lysophosphatidylcholine
Description: The material selected for these studies has been lysophosphatidylcholine (described above).

[9] = intranasal simple solution, 2 IU/kg
[10] = intranasal solution with 0.2% LPC
[11] = intranasal starch microspheres and LPC
[12] = intranasal starch microspheres and LPC, 2 IU/kg

insulin: Zn-crystallized highly purified semisynthetic human insulin (sheep studies)
plasma glucose levels [1]: significant decrease | absorption after nasal application [2]: increase the absorption | shape of absorption profile ([3]; nasal): sharp peak | plasma glucose level versus insulin in GDC solution ([3]; nasal 2 IU/kg, GDC 0.08 mg/kg and starch microspheres 2.5 mg/kg): decreased considerably more | absorption (plasma insulin levels) ([3]; nasal 2 IU/kg, GDC and starch microspheres): enhanced absorption | decrease in plasma glucose and increase in absorption versus starch microspheres alone ([3]; starch microspheres with N-acetyl cysteine): considerably increased | decrease in plasma glucose and increase in absorption versus starch microspheres alone ([3]; starch microspheres with aprotinin): considerably increased | effect on plasma glucose levels versus LPC-M alone in solution ([3]; nasal, LPC-M and starch microspheres): considerably increased effect | absorption efficiency across the nasal membrane [4]: about 1.2 % of the administered dose | shape of plasma glucose profile versus intravenous insulin ([5]; intranasal insulin-microsphere-enhancer system): very similar to the one obtained for the intravenous insulin | amount of insulin absorbed [5, 9]: very low | effect on plasma glucose level [5, 9]: does not have a significant effect | amount of insulin appearing in the circulation [5, 10]: increases the amount of insulin appearing in the circulation | plasma glucose level [5, 10]: somewhat lower | decline of insulin level after peak [5, 11]: decreases rapidly as for intravenous insulin | relative bioavailability versus subcutaneous injection [5, 11]: about 25% | time of peak insulin level [5, 11]: 15 to 20 min | increase in AUC of plasma insulin versus simple nasal solution [5, 12]: 693% | increase in peak insulin level versus simple nasal solution [5, 12]: 1040% | effect of increasing amounts of bile salt on absorption [6]: striking effect | appearance of peak level [7]: rapidly | dose response [7]: clear dose response relationship | enhancement concept, outcome [8]: successful
